B1: Chlamydomonas IFT25_(1-136) (domain or fragment, Chlamydomonas reinhardtii, UniProt B8LIX8 1-136, looked up)
chain: MKDYAREENGGLVVMASCSDERFPPENMLDGKDNTFWVTTGMFPQEFVLRLESCIRVSKITTLSLNVRKLAVEKCDQDKPDQFEKVFEVELANRGDRLQTEVHQVNIRAKYLKFILLQGHGEFATVNRVSVVGGDD
B2: GST-tagged CrIFT57_(1-234) (domain or fragment, Chlamydomonas reinhardtii, UniProt Q2XQY7 1-234, looked up)
chain: MSSKRGGRSSLAKAPEEAVNGEAFAPEASPPPPGDDGDAGGEDGGAPAPPPPPATKGGPVAVGRSLEIQTTPDVCMEMLADKLKLLNYEADFCRKKKPYRKPLSRLYFAVPLANSSEQFFYFTSLATWLLGLAGVELPAPKEFDDPNLTCQNILGAVKKLGFAPPSYHPTKLTVGNGKEVVGVLDGLVDFVLERRHHKYSRPAYGNDGQPEEGVQLDDEAEAAAMEGADELAMP
B3: Chlamydomonas IFT27 (natural protein, Chlamydomonas reinhardtii)
chain: MVKKEVKPIDITATLRCKVAVVGEATVGKSALISMFTSKGSKFLKDYAMTSGVEVVVAPVTIPDTTVSVELFLLDTAGSDLYKEQISQYWNGVYYAILVFDVSSMESFESCKAWFELLKSARPDRERPLRAVLVANKTDLPPQRHQVRLDMAQDWATTNTLDFFDVSANPPGKDADAPFLSIATTFYRNYEDKVAAFQDACRNY
B4: Chlamydomonas IFT74_(128-C) (domain or fragment, Chlamydomonas reinhardtii, UniProt Q6RCE1 128-641, looked up)
chain: GVGRQVLDKNYFMNELRQKRMEIAQVTSNMKSDLEALERKQAQYNSMDKRASDLSKEVKILQEALADYNTVLDKVGSQAPVYVIQQEFAALKDRNEQQRKRVDEVLTERLNLESKAKQAESKMSEIQASMDQRLNSMPPSQRNEYTTLVAEQQQLQADSKRFEEVLDELDKALQASEGELARNPFKQRSLQLQEQIRALTEKKYELTEEERQSKRSPEELRADLMAKIKRDNTEVEQMTQQIRELQDQIKKMEERVKSLGGATSGAAAAEEKANREKFEELLAKERDLNNFMDGFPSRKAAKMQEKQQKEDGIVGVLEKMVKMQGIIGSNLPSQKKYKEMQDELEYKKMQLENTQTTQERLKEELTMRRTELEKIDTLEDKIKLELTQLAERQEAMEKEMGEFGSVEDIQRKANAARERMEGLRSVLLKRKDLLRSIVAERGLKFQAKRAQLQDHNLQVQLEKMEAKLKNLSAGVFEMDEFIKAKESETNYRQLASNIAALVDDLNVHVKKAVV
B5: Chlamydomonas IFT46_(188-319) (domain or fragment, Chlamydomonas reinhardtii, UniProt A2T2X4 188-319, looked up)
chain: QLRQLSKEAPGAKADMVGRLEHTDENKAKKIQQWIASINDIHKAKPAATVNYSKRMPEIEALMQEWPPEVETFLKTMHMPSGDVELDIKTYARLVCTLLDIPVYDDPVESLHVLFTLYLEFKNNPIFRQHME

Experiments:
[1] = biological target: T1, Chlamydomonas IFT81/74_(128-C) heterodimer within the IFT-B1 nonamer (Chlamydomonas reinhardtii, UniProt Q68RJ5 1-683; Q6RCE1 128-641); test: cross-linking
T1 sequence (looked up) 1: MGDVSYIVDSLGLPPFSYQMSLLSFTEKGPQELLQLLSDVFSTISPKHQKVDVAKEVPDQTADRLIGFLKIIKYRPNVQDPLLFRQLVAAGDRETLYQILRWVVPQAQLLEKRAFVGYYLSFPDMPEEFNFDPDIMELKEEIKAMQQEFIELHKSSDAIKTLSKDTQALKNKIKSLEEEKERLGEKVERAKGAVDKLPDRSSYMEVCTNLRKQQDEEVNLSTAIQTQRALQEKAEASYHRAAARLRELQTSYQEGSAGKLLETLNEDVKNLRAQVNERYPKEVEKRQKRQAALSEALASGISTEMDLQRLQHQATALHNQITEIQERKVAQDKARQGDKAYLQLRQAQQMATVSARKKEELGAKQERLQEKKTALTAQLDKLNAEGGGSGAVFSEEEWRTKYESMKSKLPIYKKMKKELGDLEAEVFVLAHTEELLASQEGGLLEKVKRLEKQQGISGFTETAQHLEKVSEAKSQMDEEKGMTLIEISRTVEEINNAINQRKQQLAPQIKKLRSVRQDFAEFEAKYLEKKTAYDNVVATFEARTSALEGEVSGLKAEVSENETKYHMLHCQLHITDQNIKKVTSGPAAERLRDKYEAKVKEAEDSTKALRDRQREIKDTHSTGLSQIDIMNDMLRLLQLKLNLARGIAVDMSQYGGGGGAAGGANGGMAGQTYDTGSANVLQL
T1 sequence (looked up) 2: B4 chain

CrIFT172_(1-968) = biological target: T2, CrIFT172_(1-968) (Chlamydomonas reinhardtii, UniProt Q5DM57 1-968); test: pull-down
T2 sequence (looked up): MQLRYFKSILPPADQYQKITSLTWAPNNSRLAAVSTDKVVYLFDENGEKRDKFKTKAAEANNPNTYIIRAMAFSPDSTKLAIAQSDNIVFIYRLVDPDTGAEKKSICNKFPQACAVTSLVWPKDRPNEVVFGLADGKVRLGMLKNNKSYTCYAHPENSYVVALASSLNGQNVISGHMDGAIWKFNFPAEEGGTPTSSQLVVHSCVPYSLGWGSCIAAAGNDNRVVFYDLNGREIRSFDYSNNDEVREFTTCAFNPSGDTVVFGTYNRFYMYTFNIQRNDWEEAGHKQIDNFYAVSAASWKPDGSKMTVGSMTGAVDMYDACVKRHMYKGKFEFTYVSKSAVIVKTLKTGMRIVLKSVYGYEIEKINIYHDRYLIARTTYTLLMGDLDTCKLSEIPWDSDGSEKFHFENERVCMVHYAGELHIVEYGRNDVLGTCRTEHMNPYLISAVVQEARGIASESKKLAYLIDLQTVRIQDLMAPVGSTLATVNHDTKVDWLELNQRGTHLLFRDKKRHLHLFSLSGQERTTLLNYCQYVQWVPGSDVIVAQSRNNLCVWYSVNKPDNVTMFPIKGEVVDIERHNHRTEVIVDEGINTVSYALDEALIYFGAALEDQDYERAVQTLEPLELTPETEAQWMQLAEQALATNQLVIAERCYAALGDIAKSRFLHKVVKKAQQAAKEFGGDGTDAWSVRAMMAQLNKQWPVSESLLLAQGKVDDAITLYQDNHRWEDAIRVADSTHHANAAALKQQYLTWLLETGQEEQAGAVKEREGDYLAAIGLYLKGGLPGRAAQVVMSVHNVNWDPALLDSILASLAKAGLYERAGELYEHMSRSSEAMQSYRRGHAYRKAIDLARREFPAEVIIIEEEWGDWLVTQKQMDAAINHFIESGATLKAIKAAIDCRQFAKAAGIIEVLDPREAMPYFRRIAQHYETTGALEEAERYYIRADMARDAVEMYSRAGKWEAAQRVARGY

Chlamydomonas IFT81 = biological target: T3, Chlamydomonas IFT81 (Chlamydomonas reinhardtii, UniProt Q68RJ5 1-683); test: cross-linking
T3 sequence (looked up): T1 sequence (looked up) 1

[2] = biological target: B4; test: cross-linking

| Binder | binding result [1] | binding result (Chlamydomonas IFT81) | further results |
| --- | --- | --- | --- |
| B1 | binds | – | – |
| B2 | – | – | binding result (CrIFT172_(1-968)): binds |
| B3 | binds | – | – |
| B4 | – | binds | – |
| B5 | – | binds | binding result [2]: binds |

Source: publication doi:10.1101/2022.08.20.504624 (bioRxiv, 2022)
